Among the data in patent US20210380707A1 are OD 450 values, retold here.

Changes are numbered by the printed parent chain.

B1: 18F8A8 (antibody, IgG1, V domains shown)
VH: QVTLKESGPGILQPSQTLSLTCSFSGFSLSTSNMGVAWIRQPLGKGLEWLLYILWNDTKYYNPALKSRLSISKDTYNNQVFLKIVNVDTADTATYYCARIRRDYALDYWGQGTSVTVSS
VL: DIVMSQSPSSLAVSVGEKVTMNCKSSQSLLYSNNQKNYLAWYQQKPGQSPKLLIYWASTRESGVPDRFTGSGSGTDFTLTISSVKAEDLAVYYCQQYYIYPLAFGGGTKLEIK
B2: 19H7E4 (antibody, IgG1, V domains shown)
VH: QVTLKESGPGILQPSQTLSLTCSFSGFSLSTSNVGVGWIRQPSGKGLEWLLHILWNDGKYYNPALKSRLTISKDTSTNQVFLKIADVDTADSATYYCARLRRDYGMDYWGQGTSVTVSS
VL: B1 VL with N22S, N33Y, I99T, L102Y
B3: 4E6G9 (antibody, V domains shown)
VH: QIQLVQSGPELKKAGETVKISCKASGYTFAAYSMHWVKQAPGKGLKWMGWINTETGEPTYADDFKGRFAFSLETSASTAYLQINNLKNEDTATYFCTRDDYDGGRFSYWYFAVWGAGTTVTVSS
VL: DIQMTQSPSSLSASLGGKVTITCKASQDINKYIAWYQHRPGKGPRLLIRYTSTLQPGIPSRFSGSGSGRDYSFSINNLEPEDIATYYCLQYDNLLTFGGGTKLEIK
B4: 16D7C8 (antibody, IgG3, V domains shown)
VH: QVQLQQSGPELVKPGASVRISCKASGYTFTSFYIHWVKQRPGQGLEWIGWISPINININYNEKFKGKATLTADKSSSTVYMQLSSLTSEDSAVYFCEGTSENFDVWGAGTTVTVSS
VL: DVLMTQIPLSLPVSLGDQASISCRSTQNIVHSNGNTYLEWYLQKPGQSPKLLIYKVSNRFSGVPDRFRGSGSGTEFTLKITRVEADDLGVYYCFQGSHVPFTFGAGTKLELK
B5: 3H11D12E7 (antibody, V domains shown)
VH: QIQLVQSGPELKKPGETVKISCKASGYTFTDYSMHWVKQAPGKGLKWMGWINTETGEPTYADDFKGRFAFSLETSASTAYLQINNLKNDDTATYFCARSFYRYDWYFDVWGAGTTVTVSS
VL: QIVLTQSPAIMSASPGEKVTITCSASSSVSFMHWFQQKPGTSPKLWIYSTSNLASGVPARFSGSGSGTSYSLTISRMEAEDAATYYCQQRTSFPPTFGGGTNLEIK
B6: 11E12E8 (antibody, IgG1, V domains shown)
VH: DVQLVESGGGLVQPGGSRKLSCAASGFTFSRFGMNWVRQAPEKGLEWVAYISSGSGDIYYADTVKGRFTISRDNPKNTLFLQMTSLRSEDTAMYYCAVTWFAYWGQGTLVTVSA
VL: QAVVTQEPALTTSPGETVTLTCRSSTGAVTTSNYANWVQEKPDHLFTGLIGGTNNRAPGVPARFSGSLIGDKAALTITGAQTEDEAIYFCVLWYSNHFIFGSGTKVTVL

One assay deals with Mouse IgG2a protein (AcroBiosystems Cat# IGA-M5207) (mouse) [IgG part: P01863]. Kind of assay: indirect ELISA, hybridoma supernatant, coated antigen B at 1 µg/ml.
Mouse IgG2a protein (AcroBiosystems Cat# IGA-M5207) (mouse) [IgG part: P01863], sequence (P01863 98-330): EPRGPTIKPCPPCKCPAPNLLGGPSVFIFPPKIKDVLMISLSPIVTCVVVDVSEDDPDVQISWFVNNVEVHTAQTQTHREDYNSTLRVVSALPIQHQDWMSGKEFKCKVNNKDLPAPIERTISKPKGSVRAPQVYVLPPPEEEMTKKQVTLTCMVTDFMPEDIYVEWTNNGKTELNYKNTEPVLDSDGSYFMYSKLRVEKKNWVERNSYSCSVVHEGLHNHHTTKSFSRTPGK
Molecule B1 registered an OD 450 of 0.146 OD 450.
The same measure, in the same setting: the value for B2 was 0.134 OD 450.
B3 displayed an OD 450 of 0.121 OD 450.
B4 displayed an OD 450 of 0.154 OD 450.
For the molecule B5, the OD 450 came out at 0.115 OD 450.
B6 gave an OD 450 of 0.107 OD 450.

The target in the next assay is recombinant human CD70 tagged with mouse IgG2a Fc (AcroBiosystems Cat#CDL-H525a) (human; mouse) (UniProt P32970). The assay is described as follows: indirect ELISA, hybridoma supernatant, coated antigen A at 1 µg/ml.
recombinant human CD70 tagged with mouse IgG2a Fc (AcroBiosystems Cat#CDL-H525a) (human; mouse), sequence (P32970 39-193): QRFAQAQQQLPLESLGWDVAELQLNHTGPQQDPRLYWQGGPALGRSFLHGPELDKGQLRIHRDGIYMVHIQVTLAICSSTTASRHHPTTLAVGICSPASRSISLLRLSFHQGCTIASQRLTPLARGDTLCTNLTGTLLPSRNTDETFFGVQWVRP
For the molecule B1, the OD 450 is 1.97 OD 450.
On the same count and under the same terms, with B2 the figure was 1.85 OD 450; with B3, 2.51 OD 450; with B4, 2.12 OD 450.
On to B5, for which the OD 450 was found to be 1.87 OD 450.
On the same count and under the same terms, with B6 the figure was 1.01 OD 450.
